Laboratory results published in patent publication US10323078B2, “Isolated peptides and fragments thereof from fibrinogen for use as drugs, particularly in skin inflammatory diseases” (Universite Paris Descartes, priority 2015, dated 2019).

How the values were obtained:
P. acnes 6919 strain = experiment: Adhesion assay, biotinylated P. acnes binding to HaCaT keratinocytes; assay type: cell-based, Propionibacterium acnes; conditions: P. acnes 6919 pre-treated with whole fibrinogen 0.01 to 0.5 mM, 1 h at 37° C.
Experimental: FIG. 12: Dose-dependent inhibition of P. acnes binding to keratinocytes. Biotinylated P. acnes 6919 strain at concentrations adjusted to 0.1 of absorbance at 600 nm was pre-treated with whole human (dark gray bar) and bovine (light gray bar) fibrinogen at the concentrations ranging from 0.01 to 0.5 mM and incubated 1 h at 37° C. with the human HaCaT keratinocyte cell line. After removal of unbound bacteria, adhesion activity was detected at 410 nm. Data are means±S.D. of three separate experiments. Statistical significance is indicated by * (P<0.05), ** (P<0.01), *** (P<0.001), and **** (P<0.0001), respectively.
The bacterial suspension was adjusted at 600 nm to the desired concentration, pretreated with peptides Fg1 and Fg2 at the final concentration ranging from 0.87 to 7 μM for 1 h at 37° C. and deposited on the previously saturated cells with a solution of PBS SVF 2% for 2 h. After incubation for 1 h at 37° C., unbound bacteria are removed by 3 washes with PBS and fixed bacteria are detected by a streptavidin-peroxidase solution of 0.5 μg/ml for 30 min.
Whole P. acnes bacteria are labelled by biotinylation, pre-treated or not with the peptides and contacted with the various cell lines. After removal of the unfixed bacteria, the adhesion activity was measured spectrophotometrically by using the streptavidin-peroxidase conjugate and a chromogenic substrate. […]

ThP1 cells = experiment: TNF-α production by P. acnes-stimulated ThP1 (ELISA); assay type: cell-based, human; conditions: 0.87 to 7 μM
Experimental: (§1) For experiences of stimulation with P. acnes, cells were incubated with the P. acnes suspension adjusted at the appropriate concentration, pre-treated for 1 h at 37° C. or not with fibrinogen recombinant peptides Fg1 and Fg2 at the concentrations 0.87, 1.75, 3.5 or 7 μM for the desired period of time at 37° C. in 5% CO2.
(§2) Human IL-1ß, IL-8, IL-12, hBD-2, and TNF-α protein concentration was measured in the supernatants of stimulated cells using various ELISA Set kits (Ready-Set-Go kit from eBioscience for acne experiments, and for psoriasis experiments the Duo set IL-8 kit from R&D Systems and the BD-2 Human Development (hBD-2) from Peprotech) according to the manufacturer's instructions. We used serial dilutions of recombinant human IL-1ß, IL-8, IL-12 and TNF-α for standard curve. The optical density was determined at 450 nm at a wavelength correction of 540 nm.
(§3) To assess the efficacy of Fg1 recombinant peptide, the production of O2^∘− and H2O2 by HaCaT cells NHDK, THP-1, MRC5 and HDF stimulated by pretreated P. acnes strains 6919, RON and PIE was measured. The amount of ROS produced was compared to that produced by the stimulated cells with untreated bacteria. Production baseline was obtained by measuring ROS on unstimulated cells. The production of IL-1ß, IL-8, IL-12 and TNF-α was also measured in all conditions cited above. The measurement of the production of ROS is performed by spectrofluorimetry in the presence of specific fluorochromes directly on the monolayer cell. Measurement of cytokine production was performed in parallel on the cell culture supernatant.
(§4) Two sets of experiments were implemented: 1) The cells were stimulated (18 h at 37° C.) by P. acnes strains previously pretreated with Fg1 and Fg2 peptides at the final concentrations ranging from 0.87 to 7 μM for 1 h at 37° C.; and 2) The cells were pretreated first with Fg1 and Fg2 peptides at the final concentrations ranging from 0.87 to 7 μM for 24 h at 37° C. and stimulated (18 h at 37° C.) by P. acnes strains.

MRC5 cells [1] = experiment: IL-8 production by P. acnes-stimulated MRC5 (ELISA); assay type: cell-based, human; conditions: 0.87 to 7 μM
Experimental: FIG. 15: Dose-dependent inhibition of IL-8 production by fibroblast stimulated by P. acnes pre-treated by recombinant peptide. MRC5 cells were incubated for 18 h with P. acnes RON strain at a concentration adjusted to 0.2 of absorbance at 600 nm (blue bar) and with P. acnes pretreated with recombinant peptide Fg1 (light gray bar) and Fg2 (dark gray bar). IL-8 concentration was measured by ELISA as described in Materials and Methods. Control experiment was done on unstimulated HaCaT cell (red bar). Data are means±S.D. of three separate experiments. Statistical significance is indicated by * (P<0.05), ** (P<0.01), *** (P<0.001), and **** (P<0.0001), respectively.
as §1, §2, §3, §4

MRC5 cells [2] = experiment: H2O2 production by P. acnes-stimulated MRC5; assay type: cell-based, human; conditions: bacteria first pretreated, 0.87 to 7 μM
NHDK cells = experiment: O2°− production by P. acnes-stimulated NHDK; assay type: cell-based, human; conditions: 0.87 to 7 μM
Experimental: as §1
All cells lines (5·10^4 to 10^5 cells/well) were seeded in 96-well plates (Corning Costar, Brumath, France) and treated as previously described. After stimulation, cells were washed three times in PBS and incubated with 100 μl per wells of 5 μM DHE (for determination of O2^●−) or 5 μM H2-DCFDA (for determination of H2O2) for 30 min as described previously and fluorescence intensity was recorded every hour over a period of 5 h. Fluorescence excitation/emission maxima were for DHE: 480/610 nm and for H2-DCFDA: 507/525 nm. At the end of the experiment, the number of adherent cells was evaluated by the crystal violet assay as described below. O2^●−, and H2O2 were assayed by spectrofluorimetry on a Fusion spectrofluorimeter (PackardBell, Paris, France). Levels of ROS were calculated in each sample as follows: reactive oxygen species rate (arbitrary units/min/10^6 cells)=(fluorescence intensity [arbitrary units] at T5h—fluorescence intensity [arbitrary units] at To/300 minutes/number of adherent cells as measured by the crystal violet assay, and were expressed as arbitrary unit (A.U.).
as §3, §4

[3] = P. acnes 6919, set I, bacteria first pretreated
[4] = P. acnes 6919, set II, cells first pretreated
[5] = P. acnes PIE, set I, bacteria first pretreated
[6] = P. acnes PIE, set II, cells first pretreated
[7] = P. acnes RON, set I, bacteria first pretreated
[8] = P. acnes RON, set II, cells first pretreated

Molecule: human fibrinogen: purified commercial human fibrinogen (Sigma), glycoprotein hexamer of Aα, Bß and γ chains
- Inhibition of adhesion of P. acnes to keratinocytes (P. acnes 6919 strain): able to inhibit the adhesion

B1: MKRMVSWSFHKLKTMKHLLLLLLCVFLVKSQGVNDNEEGFFSARGHRPLDKKREEAPSLRPAPPPISGGGYRARPAKAAATQKKVERKAPDAGGCLHADPDLGVLC (protein)
chain: MKRMVSWSFHKLKTMKHLLLLLLCVFLVKSQGVNDNEEGFFSARGHRPLDKKREEAPSLRPAPPPISGGGRARPAKAAATQKKVERKAPDAGGCLHADPDLGVLCMKRMVSWSFHKLKTMKHLLLLLLCVFLVKSQGVNDNEEGFFSARGHRPLDKKREEAPSLRPAPPPISGGGYRARPAKAAATQKKVERKAPDAGGCLHADPDLGVLC
modifications: GST fusion; fragment Fg1
notes: fragment of Bß chain of human fibrinogen having 106 amino acids; recombinant GST-fused peptide expressed in E. coli
- Inhibition of Interleukine TNF alpha (TNF-α) production (ThP1 cells; [3]): pos
- Inhibition of Interleukine TNF alpha (TNF-α) production (ThP1 cells; [4]): pos
- Inhibition of Interleukine TNF alpha (TNF-α) production (ThP1 cells; [5]): pos
- Inhibition of Interleukine TNF alpha (TNF-α) production (ThP1 cells; [6]): pos
- Inhibition of Interleukine TNF alpha (TNF-α) production (ThP1 cells; [7]): pos
- Inhibition of Interleukine TNF alpha (TNF-α) production (ThP1 cells; [8]): pos
- Inhibition of Interleukine 8 (IL-8) production (MRC5 cells [1]; [3]): pos
- Inhibition of Interleukine 8 (IL-8) production (MRC5 cells [1]; [4]): pos
- Inhibition of Interleukine 8 (IL-8) production (MRC5 cells [1]; [5]): pos
- Inhibition of Interleukine 8 (IL-8) production (MRC5 cells [1]; [6]): pos
- Inhibition of Interleukine 8 (IL-8) production (MRC5 cells [1]; [7]): pos
- Inhibition of Interleukine 8 (IL-8) production (MRC5 cells [1]; [8]): pos
- Inhibition of Hydrogen peroxide (H2O2) production (MRC5 cells [2]; P. acnes 6919, set I): pos
- Inhibition of Hydrogen peroxide (H2O2) production (MRC5 cells [2]; P. acnes PIE, set I): pos
- Inhibition of Hydrogen peroxide (H2O2) production (MRC5 cells [2]; P. acnes RON, set I): pos
- Inhibition of Superoxide anion (O2°−) production (NHDK cells; [3]): pos
- Inhibition of Superoxide anion (O2°−) production (NHDK cells; [4]): pos
- Inhibition of Superoxide anion (O2°−) production (NHDK cells; [5]): pos
- Inhibition of Superoxide anion (O2°−) production (NHDK cells; [6]): pos
- Inhibition of Superoxide anion (O2°−) production (NHDK cells; [7]): pos
- Inhibition of Superoxide anion (O2°−) production (NHDK cells; [8]): pos
